B1: Dual specificity mitogen-activated protein kinase kinase 3 (Homo sapiens), P46734 (parent)
chain: MESPASSQPASMPQSKGKSKRKKDLRISCMSKPPAPNPTPPRNLDSRTFITIGDRNFEVEADDLVTISELGRGAYGVVEKVRHAQSGTIMAVKRIRATVNSQEQKRLLMDLDINMRTVDCFYTVTFYGALFREGDVWICMELMDTSLDKFYRKVLDKNMTIPEDILGEIAVSIVRALEHLHSKLSVIHRDVKPSNVLINKEGHVKMCDFGISGYLVDSVAKTMDAGCKPYMAPERINPELNQKGYNVKSDVWSLGITMIEMAILRFPYESWGTPFQQLKQVVEEPSPQLPADRFSPEFVDFTAQCLRKNPAERMSYLELMEHPFFTLHKTKKTDIAAFVKEILGEDS

In this experiment the parent is B1. To be noted: with dyr1b_human DYRK1B.
Turning to T222E, the “effect of a mutation on the interaction” value was “increasing interaction”.

Turning to S218E, the “effect of a mutation on the interaction” value is reported as “increasing interaction”.

The record behind these values is IntAct's records for PubMed 11980910.
